Data published in paper PMC9674588, “Molecular recognition of a membrane-anchored HIV-1 pan-neutralizing epitope” (Communications Biology, 2022).
Entries after “also recorded” stand apart in the source; their conditions may differ. Where no end group is shown, it is not given here.

Legend:
Fab 10E8 [1] = test: Binding of KK114-Fab 10E8 to single GUVs containing the peptides reconstituted (confocal microscopy); details: for Fab 10E8 binding vs TMD length and bilayer thickness (in words): GUVs of diC14:1PC, POPC, diC22:1PC
Method: To that end, we quantified antibody binding to single vesicles by confocal microscopy of Giant Unilamellar Vesicles (GUVs) incubated with fluorescently labeled Fab 10E8[36],[47].
Thus, to establish the influence of the bilayer thickness on the accessibility to the 10E8 epitope, we selected lipid bilayers made of diC14:1PC and diC22:1PC, which are respectively thinner and thicker than those made of POPC (C16:0-C18:1PC)[52],[53].
To prepare lipid bilayers containing reconstituted peptide, lipids and MPER-TMD-derived peptides were mixed in organic solvent prior to the production of the liposomes. Briefly, POPC dissolved in chloroform:methanol 1:2 (vol:vol) was mixed with peptide dissolved in HFIP at the desired peptide-to-lipid molar ratio. The mixture was dried under a N2 stream and traces of organic solvents were removed by 1 h vacuum pumping. Subsequently, the dried lipid films were subjected to 2 h of gentle hydration with H2O using a N2 gas bubbler to facilitate further dispersion of the dried lipid-peptide film in PBS aqueous buffer. Next, the multilamellar vesicles were bath sonicated (1 h, 55 °C) and subjected to 15 freeze and thaw cycles to obtain unilamellar vesicles.
For binding experiments, NBD-labeled GUVs were produced following the electro-formation method as previously described[47]. In brief, a total of 2 mM of lipid was dissolved in 200 μL CHCl3:CH3OH with the fluorescent probe NBD-PE (0.5%). When required, peptide dissolved in 10% (v/v) HFIP was included in the organic phase at 1:250 peptide-to-lipid molar ratio. The GUVs were added to a bovine serum albumin (BSA)-blocked microscope chamber that already included 250 nM of 10E8-based Fabs conjugated with the KK114 probe at residue C216HC, and were incubated for 15 min prior to imaging. […] Confocal microscopy images were acquired on an inverted confocal fluorescence microscope (Nikon Eclipse TE-2000, Nikon, Nikon Instruments, Tokyo, Japan). NBD-stained GUVs and Fabs conjugated with the KK114 probe were excited at 476 nm and 637 nm, respectively. […] The band pass filters used were 515/30 and Long Pass 650 nm. […]

[2] = Infrared spectroscopy (amide I) of peptides reconstituted in lipid bilayers; assay type: physicochemical; details: for IR amide-I band area, 1630 cm^−1 (solvated helices) / IR amide-I band area, 1642 cm^−1 (helix-helix interactions/disordered) / IR amide-I band area, 1655 cm^−1 (α-helix) / IR amide-I band area, 1670 cm^−1 (turns): monounsaturated PC, D2O PBS
Excerpt: In addition, the lipid bilayer distance covered by the hydrocarbon acyl chains strongly conditions the favorable interactions between TMDs and lipids, so that a mismatch between this distance and the TMD length can give rise to alterations in the structure and function of the integral membrane proteins. Therefore, to rule out DC effects on the conformations adopted by the reconstituted MPER-TMD peptides, we performed IR experiments and varied systematically this parameter utilizing a complete series of monounsaturated PCs (i.e., diC14:1PC, diC16:1PC, diC18:1PC, diC20:1PC and diC22:1PC)[55].
Infrared spectra were recorded in a Bruker Tensor 27 spectrometer equipped with a mercury-cadmium-telluride detector using a Peltier-based temperature controller (TempCon, BioTools Inc., Wauconda, IL) with calcium fluoride cells (BioCell, BioTools Inc., Wauconda, IL). Lipid vesicles with the peptides reconstituted were lyophilized and subsequently prepared at 3 mg/mL in D2O buffer (PBS). A 25 μL sample aliquot was deposited on a cell that was sealed with a second cell. Reference windows without peptide were prepared similarly. Typically, 1000 scans were collected for each background and sample, and the spectra were obtained with a nominal resolution of 2 cm^−1. Data treatment and band decomposition of the original amide I have been described elsewhere.

Fab 10E8 [3] = test: AFM single-molecule force spectroscopy of Fab 10E8-peptide unbinding in POPC SPBs; assay type: binding; details: for MPRF (most probable rupture force), mean: 1:50
Method: SPBs were produced by the vesicle adsorption method and their topography analyzed using a Nanowizard III AFM (JPK Instruments) under contact mode. Briefly, approximately 30 µl of the vesicle suspensions described above were deposited onto freshy cleaved mica disks (area 15 mm^2) preincubated with 30 µl of 150 mM KCl, 10 mM Tris, pH = 7.4 (measurement buffer) and incubated for 30 min at room temperature, leading to the formation of SPBs. The samples were carefully rinsed with measurement buffer before the AFM experiment and always kept under aqueous environment. BL-AC40-C2 Si3N4 cantilevers (Olympus, Japan) with a nominal spring constant of 0.09 N/m were used for bilayer imaging with 0.5 nN of force applied.
For single molecule force spectroscopy, MLCT-BIO probes (Bruker, Santa Barbara, CA USA) were functionalized with Fab 10E8 using well established protocols. To that end, cantilevers were first rinsed with acetone and water, exposed to UV-ozone and coated with 3-Aminopropyldimethylethoxysilane (APDMES). They were then incubated with glutaraldehyde and finally with Fab. Finally, to passivate possible unreacted aldehyde moieties, cantilevers were incubated in 0.1% Bovine Serum Albumin (BSA) for 1 h at room temperature and rinsed in measurement buffer prior to use. Force maps were recorded using a maximum applied force of 0.2 nN, a varying contact time of 0.5, 1, 2 and 5 s and varying retraction speeds of 0.1 µm/s, 2 µm/s and 10 µm/s. Data were analyzed with the data processing software from JPK Instruments (Berlin, Germany).
To determine the MPRF at a given loading rate the frequency histograms of the measured forces were fitted to a Gaussian distribution (Eq. 1) and its maximum calculated.1 y=Amplitude⋅exp−0.5⋅x−Mean/SD^2
MPRF is a function of the loading rate as defined by (Eq. 2):2 MPRF=kβ⋅T/χβlnrf⋅χβ/koff⋅kβ⋅T where kβ is Boltzmann constant, T is the temperature, koff is the natural dissociation rate at zero force and rf is the loading rate.
These parameters can be actually obtained from the slope of the linear fit of the data, and by linearly extrapolating the experimental data to zero external force, respectively.

[4] = GUV permeabilization (soluble KK114 entry); details: POPC GUVs with peptide reconstituted
Method: When required, peptide dissolved in 10% (v/v) HFIP was included in the organic phase at 1:250 peptide-to-lipid molar ratio. […] For GUV permeabilization assays, GUVs were added to a BSA-blocked microscope chamber that already included the unconjugated and soluble KK114 dye, and were incubated for 15 min prior to imaging. Confocal microscopy images were acquired on an inverted confocal fluorescence microscope (Nikon Eclipse TE-2000, Nikon, Nikon Instruments, Tokyo, Japan). […] The band pass filters used were 515/30 and Long Pass 650 nm. The objective used was a 63X oleo immersion with a numerical aperture (NA) of 1.2.

[5] = Breakthrough force of POPC SPBs (FS-AFM); details: peptide-to-lipid 1:50
Excerpt: Permeabilization of single vesicles correlated with effects of the reconstituted peptides on the nanomechanical stability of SPBs analyzed by FS-AFM[57] (Fig. 6b). In this approach, we measured the breakthrough forces of the different SPBs to quantitatively determine the nanomechanical resistance to membrane rupture. By comparing the AFM tip indentations through the different bilayer systems at the same approach speed, we measured the discontinuity in the approach curve which corresponds to the breakthrough force; a parameter widely used to assign the mechanical stability of SPBs[57]. […] This increase was even larger than that observed in an SPB containing 50 mol % cholesterol, which was added as a stiffening-control sample to the analysis. […]
SPBs were produced by the vesicle adsorption method and their topography analyzed using a Nanowizard III AFM (JPK Instruments) under contact mode. […]
Force spectroscopy data for SPB breakthrough measurements were collected using SNL10 Si3N4 cantilever (Bruker, Santa Barbara, CA, USA) with a nominal spring constant of 0.35 N/m, at a speed of 1 µm/s and applying 10 nN of maximum force. Discontinuities in the force versus separation approach curve were determined for each of the indentation curves as reproducible jumps within the extended traces using JPK data processing software.

[6] = Vesicle flotation (incorporation of reconstituted peptides into membranes); assay type: physicochemical; details: POPC, 1:50 mol:mol, flotation in sucrose gradient, Western blot
Excerpt: Supplementary Figure 4: Incorporation of reconstituted peptides into membranes. (a) Diagram illustrating the Liposome flotation method. Liposome-peptide co mplex es were subjected to ultracentrifugation in a sucrose gradi ent after the reconstitution process. (b) The pres ence of th e peptides in the floated and non- floated fractions o f the gradient and in the original sample (input) as reveal ed b y Western Blot anal ysis aft er Tris -Tricine SDS-PAGE separation. Line plots below […]
liposomes. The peptide-to-lipid ratio was 1:50 (mol:mol).
(1 picture or pasted object on this page, not shown here)

[7] = hydrocarbon thickness DC 22.8 Å
[8] = reconstituted in POPC bilayers, 1:50

C-MPER-TMD700: Env residues 671–700, HXB2 numbering, containing a minimal TMD anchor and Lys-tags added at both ends (NWFNITNWLWYIKLFIMIVGGLVGLRIVFA; also: Lys-tags added at both ends, length not given here; UniProt P04578 671-700, looked up, fragment)
Fab 10E8 binding vs TMD length and bilayer thickness (in words) (Fab 10E8 [1]): C-MPER-TMDLLA-709 > C-MPER-TMD709 > C-MPER-TMD700
IR amide-I band area, 1630 cm^−1 (solvated helices) ([2]; DC 25.6 Å): 8.1%
IR amide-I band area, 1642 cm^−1 (helix-helix interactions/disordered) ([2]; DC 25.6 Å): 31.2%
IR amide-I band area, 1655 cm^−1 (α-helix) ([2]; DC 25.6 Å): 52.3%
IR amide-I band area, 1670 cm^−1 (turns) ([2]; DC 25.6 Å): 7%
IR amide-I band area, 1630 cm^−1 (solvated helices) ([2]; DC 29 Å): 8.4%
IR amide-I band area, 1642 cm^−1 (helix-helix interactions/disordered) ([2]; DC 29 Å): 39.3%
IR amide-I band area, 1655 cm^−1 (α-helix) ([2]; DC 29 Å): 48.1%
IR amide-I band area, 1670 cm^−1 (turns) ([2]; DC 29 Å): 2.6%
IR amide-I band area, 1630 cm^−1 (solvated helices) ([2]; DC 32 Å): 6.4%
IR amide-I band area, 1642 cm^−1 (helix-helix interactions/disordered) ([2]; DC 32 Å): 39.8%
IR amide-I band area, 1655 cm^−1 (α-helix) ([2]; DC 32 Å): 49.8%
IR amide-I band area, 1670 cm^−1 (turns) ([2]; DC 32 Å): 3.9%
IR amide-I band area, 1630 cm^−1 (solvated helices) ([2]; DC 35 Å): 3.1%
IR amide-I band area, 1642 cm^−1 (helix-helix interactions/disordered) ([2]; DC 35 Å): 52%
IR amide-I band area, 1655 cm^−1 (α-helix) ([2]; DC 35 Å): 39.7%
IR amide-I band area, 1670 cm^−1 (turns) ([2]; DC 35 Å): 1%
IR amide-I band area, 1630 cm^−1 (solvated helices) [2, 7]: 5.8%
IR amide-I band area, 1642 cm^−1 (helix-helix interactions/disordered) [2, 7]: 35.1%
IR amide-I band area, 1655 cm^−1 (α-helix) [2, 7]: 51.8%
IR amide-I band area, 1670 cm^−1 (turns) [2, 7]: 7.4%

C-MPER-TMD709: Env residues 671–709, HXB2 numbering, which included the nominal Env TMD sequence (Env residues 684–709) (NWFNITNWLWYIKLFIMIVGGLVGLRIVFAVLSIVNRVR; UniProt P04578 671-709, looked up, fragment)
Fab 10E8 binding vs TMD length and bilayer thickness (in words) (Fab 10E8 [1]): C-MPER-TMDLLA-709 > C-MPER-TMD709 > C-MPER-TMD700
Fab 10E8 binding to GUVs (in words) (Fab 10E8 [1]; POPC GUVs, peptide-to-lipid 1:250, 250 nM Fab): appeared to bind more efficiently to C-MPER-TMD709-containing vesicles than to the N/C-MPER683-containing ones
koff ratio among peptides (Fab 10E8 [3]; N/C-MPER683 vs C-MPER-TMD709, POPC SPBs): ≈ 22
attachment (binding) frequency (in words) (Fab 10E8 [3]; POPC SPBs, vs N/C-MPER683, contact time series, retraction 2 μm s^−1): attachment appeared to occur at higher frequency
MPRF (in words) (Fab 10E8 [3]; POPC SPBs, contact time 0.5 s, loading rate 41 nN s^−1, vs N/C-MPER683): clearly shifted to higher values
t0.5(N/C-MPER)/t0.5(C-MPER-TMD) (Fab 10E8 [3]; interaction time for half maximal probability of binding, POPC SPBs): ≈ 1.4
MPRF (most probable rupture force), mean (Fab 10E8 [3]; ln (loading rate pN/s) 3.62033, POPC SPBs): 33.4766 pN
MPRF (most probable rupture force), mean (Fab 10E8 [3]; ln (loading rate pN/s) 4.62006, POPC SPBs): 53.13 pN
MPRF (most probable rupture force), mean (Fab 10E8 [3]; ln (loading rate pN/s) 6.62009, POPC SPBs): 93.3506 pN
MPRF (most probable rupture force), mean (Fab 10E8 [3]; ln (loading rate pN/s) 7.62012, POPC SPBs): 73.97 pN
MPRF (most probable rupture force), mean (Fab 10E8 [3]; ln (loading rate pN/s) 8.62012, POPC SPBs): 81.12 pN
MPRF (most probable rupture force), mean (Fab 10E8 [3]; ln (loading rate pN/s) 9.62012, POPC SPBs): 90.66 pN
MPRF (most probable rupture force), mean (Fab 10E8 [3]; ln (loading rate pN/s) 10.6201, POPC SPBs): 135 pN
permeabilization (in words) [4]: viewed as empty spheres; also recorded: essentially impermeable
breakthrough force (in words) [5]: increased the values of the forces at which rupture was observed
incorporation into membranes (in words) [6]: total incorporation
IR amide-I band area, 1630 cm^−1 (solvated helices) ([2]; DC 25.6 Å): 18.9%
IR amide-I band area, 1642 cm^−1 (helix-helix interactions/disordered) ([2]; DC 25.6 Å): 31%
IR amide-I band area, 1655 cm^−1 (α-helix) ([2]; DC 25.6 Å): 41.6%
IR amide-I band area, 1670 cm^−1 (turns) ([2]; DC 25.6 Å): 4.9%
IR amide-I band area, 1630 cm^−1 (solvated helices) ([2]; DC 29 Å): 14%
IR amide-I band area, 1642 cm^−1 (helix-helix interactions/disordered) ([2]; DC 29 Å): 33.4%
IR amide-I band area, 1655 cm^−1 (α-helix) ([2]; DC 29 Å): 45.2%
IR amide-I band area, 1670 cm^−1 (turns) ([2]; DC 29 Å): 4.6%
IR amide-I band area, 1630 cm^−1 (solvated helices) ([2]; DC 32 Å): 16%
IR amide-I band area, 1642 cm^−1 (helix-helix interactions/disordered) ([2]; DC 32 Å): 34.8%
IR amide-I band area, 1655 cm^−1 (α-helix) ([2]; DC 32 Å): 43.2%
IR amide-I band area, 1670 cm^−1 (turns) ([2]; DC 32 Å): 3.4%
IR amide-I band area, 1630 cm^−1 (solvated helices) ([2]; DC 35 Å): 15.8%
IR amide-I band area, 1642 cm^−1 (helix-helix interactions/disordered) ([2]; DC 35 Å): 40%
IR amide-I band area, 1655 cm^−1 (α-helix) ([2]; DC 35 Å): 38.5%
IR amide-I band area, 1670 cm^−1 (turns) ([2]; DC 35 Å): 2.9%
IR amide-I band area, 1630 cm^−1 (solvated helices) [2, 7]: 20%
IR amide-I band area, 1642 cm^−1 (helix-helix interactions/disordered) [2, 7]: 34.5%
IR amide-I band area, 1655 cm^−1 (α-helix) [2, 7]: 33.8%
IR amide-I band area, 1670 cm^−1 (turns) [2, 7]: 6.4%
IR amide-I absorption maximum [2, 8]: around 1650 cm^−1
IR amide-I band component [2, 8]: 1642 cm⁻¹
